Experiments:
[1] = target: T1, soluble recombinant human FcγRIIIa (human, UniProt P08637 17-208, limits assumed); assay: indirect competitive ELISA, FcγRIIIa coated, competitor MGAH22-Bt, against margetuximab Reference Standard; stored 25 ± 2° C., column head 5 months
T1 construct: Coated on the ELISA plate; also called CD16a; Fcγ Receptor subtype IIIa
Protocol: (§1) Margetuximab contains point mutations in the Fc-domain that enhance the interaction of the margetuximab constant region with some human Fc receptors, in particular the Fcγ Receptor subtype […] (FcγRIIIa), also referred to as CD16a. The potency of the Fc domain is assessed with an indirect competitive enzyme linked immunosorbent assay (ELISA) essentially as described. The quantification of the binding of margetuximab test article Fc to the FcγRIIIa is measured by its ability to compete against the binding of a biotin-labeled margetuximab competitor sample (MGAH22-Bt). To perform the assay, soluble recombinant human FcγRIIIa is coated to the solid phase (96-well assay plates). A dilution series of margetuximab Test Article (TA) in a constant concentration of MGAH22-Bt is allowed to bind to the immobilized FcγRIIIa. A dilution-series of the test article and of the margetuximab Reference Standard is analyzed in this manner on the same assay plate, in order to generate dose-response curves for both the test article and the margetuximab Reference Standard. […] Oxidation of the added AP substrate by the conjugated AP yields a color product that can be measured at 405±10 nm. The intensity (absorbance) of the color signal is measured using a microplate reader. […] Data are fitted to a constrained four-parameter logistic model to describe absorbance signal as a function of margetuximab concentration. […]

[2] = target: T1, soluble recombinant human FcγRIIIa; assay: indirect competitive ELISA, FcγRIIIa coated, competitor MGAH22-Bt, against margetuximab Reference Standard; stored 2-8° C., 6 months
Protocol: as §1

[3] = target: T1, soluble recombinant human FcγRIIIa; assay: indirect competitive ELISA, FcγRIIIa coated, competitor MGAH22-Bt, against margetuximab Reference Standard; stored 25 ± 2° C., column head 2 months
Protocol: as §1

[4] = target: T1, soluble recombinant human FcγRIIIa; assay: indirect competitive ELISA, FcγRIIIa coated, competitor MGAH22-Bt, against margetuximab Reference Standard; stored 25 ± 2° C., column head 6 months
Protocol: as §1

[5] = target: T1, soluble recombinant human FcγRIIIa; assay: indirect competitive ELISA, FcγRIIIa coated, competitor MGAH22-Bt, against margetuximab Reference Standard; stored 25 ± 2° C., column head 4 months
Protocol: as §1

[6] = target: T1, soluble recombinant human FcγRIIIa; assay: indirect competitive ELISA, FcγRIIIa coated, competitor MGAH22-Bt, against margetuximab Reference Standard; stored 2-8° C., 12 months
Protocol: as §1

[7] = target: T1, soluble recombinant human FcγRIIIa; assay: indirect competitive ELISA, FcγRIIIa coated, competitor MGAH22-Bt, against margetuximab Reference Standard; stored 2-8° C., 9 months
Protocol: as §1

[8] = target: T1, soluble recombinant human FcγRIIIa; assay: indirect competitive ELISA, FcγRIIIa coated, competitor MGAH22-Bt, against margetuximab Reference Standard; stored 2-8° C., 30 months
Protocol: as §1

[9] = target: T1, soluble recombinant human FcγRIIIa; assay: indirect competitive ELISA, FcγRIIIa coated, competitor MGAH22-Bt, against margetuximab Reference Standard; stored 2-8° C., 36 months
Protocol: as §1

[10] = target: T1, soluble recombinant human FcγRIIIa; assay: indirect competitive ELISA, FcγRIIIa coated, competitor MGAH22-Bt, against margetuximab Reference Standard; stored 2-8° C., 0 months
Protocol: as §1

[11] = target: T1, soluble recombinant human FcγRIIIa; assay: indirect competitive ELISA, FcγRIIIa coated, competitor MGAH22-Bt, against margetuximab Reference Standard; stored 25 ± 2° C., column head 0 months
Protocol: as §1

[12] = target: T1, soluble recombinant human FcγRIIIa; assay: indirect competitive ELISA, FcγRIIIa coated, competitor MGAH22-Bt, against margetuximab Reference Standard; stored 2-8° C., 1 month
Protocol: as §1

[13] = target: T1, soluble recombinant human FcγRIIIa; assay: indirect competitive ELISA, FcγRIIIa coated, competitor MGAH22-Bt, against margetuximab Reference Standard; stored 25 ± 2° C., column head 3 months
Protocol: as §1

[14] = target: T1, soluble recombinant human FcγRIIIa; assay: indirect competitive ELISA, FcγRIIIa coated, competitor MGAH22-Bt, against margetuximab Reference Standard; stored 2-8° C., 18 months
Protocol: as §1

[15] = target: T1, soluble recombinant human FcγRIIIa; assay: indirect competitive ELISA, FcγRIIIa coated, competitor MGAH22-Bt, against margetuximab Reference Standard; stored 2-8° C., 33 months
Protocol: as §1

[16] = target: T1, soluble recombinant human FcγRIIIa; assay: indirect competitive ELISA, FcγRIIIa coated, competitor MGAH22-Bt, against margetuximab Reference Standard; stored 25 ± 2° C., column head 1 month
Protocol: as §1

[17] = target: T1, soluble recombinant human FcγRIIIa; assay: indirect competitive ELISA, FcγRIIIa coated, competitor MGAH22-Bt, against margetuximab Reference Standard; stored 2-8° C., 48 months
Protocol: as §1

[18] = target: T1, soluble recombinant human FcγRIIIa; assay: indirect competitive ELISA, FcγRIIIa coated, competitor MGAH22-Bt, against margetuximab Reference Standard; stored 2-8° C., 3 months
Protocol: as §1

[19] = target: T1, soluble recombinant human FcγRIIIa; assay: indirect competitive ELISA, FcγRIIIa coated, competitor MGAH22-Bt, against margetuximab Reference Standard; stored 2-8° C., 24 months
Protocol: as §1

T1 sequence (P08637 17-208 limits assumed): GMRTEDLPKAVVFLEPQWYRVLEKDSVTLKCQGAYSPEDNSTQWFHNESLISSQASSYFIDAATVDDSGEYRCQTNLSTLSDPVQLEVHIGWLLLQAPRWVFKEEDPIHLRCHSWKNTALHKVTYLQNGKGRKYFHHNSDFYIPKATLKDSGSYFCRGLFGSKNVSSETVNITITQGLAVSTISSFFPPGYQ

B1: margetuximab (antibody, human IgG1, kappa)
heavy: QVQLQQSGPELVKPGASLKLSCTASGFNIKDTYIHWVKQRPEQGLEWIGRIYPTNGYTRYDPKFQDKATITADTSSNTAYLQVSRLTSEDTAVYYCSRWGGDGFYAMDYWGQGASVTVSSASTKGPSVFPLAPSSKSTSGGTAALGCLVKDYFPEPVTVSWNSGALTSGVHTFPAVLQSSGLYSLSSVVTVPSSSLGTQTYICNVNHKPSNTKVDKRVEPKSCDKTHTCPPCPAPELVGGPSVFLLPPKPKDTLMISRTPEVTCVVVDVSHEDPEVKFNWYVDGVEVHNAKTKPPEEQYNSTLRVVSVLTVLHQDWLNGKEYKCKVSNKALPAPIEKTISKAKGQPREPQVYTLPPSRDELTKNQVSLTCLVKGFYPSDIAVEWESNGQPENNYKTTPLVLDSDGSFFLYSKLTVDKSRWQQGNVFSCSVMHEALHNHYTQKSLSLSPGK
light: DIVMTQSHKFMSTSVGDRVSITCKASQDVNTAVAWYQQKPGHSPKLLIYSASFRYTGVPDRFTGSRSGTDFTFTISSVQAEDLAVYYCQQHYTTPPTFGGGTKVEIKRTVAAPSVFIFPPSDEQLKSGTASVVCLLNNFYPREAKVQWKVDNALQSGNSQESVTEQDSKDSTYSLSSTLTLSKADYEKHKVYACEVTHQGLSSPVTKSFNRGEC
notes: Chimeric Fc-optimized IgG1/kappa monoclonal antibody; Tested as drug product Lot A in the F1 formulation after storage; also called MGAH22; Margetuximab DP Lot A; copies: 2 + 2
[1]
  relative potency by FcγRIIIa Binding ELISA (100% x IC50 Reference Standard/IC50 Test Article): 76%
[2]
  relative potency by FcγRIIIa Binding ELISA (100% x IC50 Reference Standard/IC50 Test Article): 103%
[3]
  relative potency by FcγRIIIa Binding ELISA (100% x IC50 Reference Standard/IC50 Test Article): 100%
[4]
  relative potency by FcγRIIIa Binding ELISA (100% x IC50 Reference Standard/IC50 Test Article): 82%
[5]
  relative potency by FcγRIIIa Binding ELISA (100% x IC50 Reference Standard/IC50 Test Article): 104%
[6]
  relative potency by FcγRIIIa Binding ELISA (100% x IC50 Reference Standard/IC50 Test Article): 110%
[7]
  relative potency by FcγRIIIa Binding ELISA (100% x IC50 Reference Standard/IC50 Test Article): 106%
[8]
  relative potency by FcγRIIIa Binding ELISA (100% x IC50 Reference Standard/IC50 Test Article): 103%
[9]
  relative potency by FcγRIIIa Binding ELISA (100% x IC50 Reference Standard/IC50 Test Article): 107%
[10]
  relative potency by FcγRIIIa Binding ELISA (100% x IC50 Reference Standard/IC50 Test Article): 76%
[11]
  relative potency by FcγRIIIa Binding ELISA (100% x IC50 Reference Standard/IC50 Test Article): 76%
[12]
  relative potency by FcγRIIIa Binding ELISA (100% x IC50 Reference Standard/IC50 Test Article): 81%
[13]
  relative potency by FcγRIIIa Binding ELISA (100% x IC50 Reference Standard/IC50 Test Article): 99%
[14]
  relative potency by FcγRIIIa Binding ELISA (100% x IC50 Reference Standard/IC50 Test Article): 105%
[15]
  relative potency by FcγRIIIa Binding ELISA (100% x IC50 Reference Standard/IC50 Test Article): 107%
[16]
  relative potency by FcγRIIIa Binding ELISA (100% x IC50 Reference Standard/IC50 Test Article): 82%
[17]
  relative potency by FcγRIIIa Binding ELISA (100% x IC50 Reference Standard/IC50 Test Article): 101%
[18]
  relative potency by FcγRIIIa Binding ELISA (100% x IC50 Reference Standard/IC50 Test Article): 92%
[19]
  relative potency by FcγRIIIa Binding ELISA (100% x IC50 Reference Standard/IC50 Test Article): 100%

Source: US20220177602A1 (MacroGenics, published 2022)
